The values that follow come from patent US8846394B2, “Treatment of neurological deficits in the striatum or substanta nigra pars compacta” (Ethicon, Inc., priority 2004, dated 2014).

Test [1] deals with embryonic rat dopaminergic neurons. Conditions: in vitro; cited from earlier work.
Test [2] relates to human umbilical cord cells. The test is described as follows: Quantitative PCR of Nurr1 and TH mRNA in umbilical postpartum cells after dopaminergic differentiation. It counts as cell-based. The method, then: Postpartum cells were isolated from an umbilical cord and placental digestion as described in U.S. patent application Ser. Nos. 10/887,012 and 10/877,446. Briefly, human umbilical cord and placental cells were isolated from explants of postpartum tissue.
Isolated umbilical and placental cells were seeded at 1,000 cells/cm^2 into laminin coated 24 well tissue culture plates (Corning, N.Y.). Cells were initially seeded in maintenance media (control) as described in nonprov serial no. After 4 days in maintenance media, cells were split into four groups. The first set of cells was switched to NBM supplemented with EGF (20 nanograms/milliliter) and bFGF (20 nanograms/milliliter) and grown for 13 days. Sets two through four were switched to NBM supplemented with EGF (20 nanograms/milliliter) and bFGF (20 nanograms/milliliter) and grown for 6 days. The NBM supplemented with EGF and […] was then removed and cells were cultured in NBM containing; MP52 plus SHH plus FGF8 (set two); MP52 plus SHH plus FGF8 plus retinoic acid (RA) (set three); or MP52 plus RA (set four) for a further 7 days of culture.
At the end of the 17-day experimental period, RNA was isolated from the induced cell population using an Rneasy kit (RNeasy Mini kit, Qiagen, Valencia, Calif.). […]

In test [3] the test system is adult rodent hippocampal neural progenitors. The test is described as follows: Immunocytochemical staining (TuJ1, TH, GFAP) of neural progenitors after 17-day culture with growth factors. Type of test: cell-based, rat. On the procedure:
Adult rodent hippocampal neural progenitors were isolated from adult rat brain following previously published methods [Svendson et al., Nat Rev Genet., 5(2) 136-44 (2004)]. Isolated cells were seeded at 1,000 cells/cm^2 into laminin-coated 24 well tissue culture plates (Becton Dickson, Bedford, Mass.).
Seeded cells were initially grown in a supplemented neuralbasal medium (NBM). The NBM was Neurobasal-A media (Invitrogen, Carlsbad, Calif.) with B27 supplement (Invitrogen, Carlsbad, Calif.), and L-glutamine (4 milliMolar) (Sigma, St. Louis, Mo.). Supplemented NBM also contains epidermal growth factor (EGF) (Sigma, St. Louis, Mo.), at 20 nanograms/milliliter, and basic fibroblast growth factor, (bFGF) (Peprotech, Rocky Hill, N.J.), at 20 nanograms/milliliter).
Set one of cells was cultured in supplemented NBM for 17 days. Set two of cells was initially cultured in supplemented NBM for 4 days. The supplemented NBM then was removed from the culture plates and cells were cultured in NBM containing MP52 (Biopharm GmbH, Heidelberg, Germany) at 20 nanograms/milliliter for a period of 13 days. Set three of cells was initially cultured in supplemented NBM for 10 days. The supplemented NBM then was removed from the culture plate, and cells were cultured in NMB containing Sonic Hedgehog, (SHH) (Sigma, St. Louis, Mo.), at 200 nanograms/milliliter, and fibroblast growth factor 8 (FGF8) (Peprotech, Rocky Hill, N.J.), at 100 nanograms/milliliter. Set four of cells was initially cultured in supplemented NBM for 10 days. The supplemented NBM then was removed from the culture plates and cells were cultured in NBM containing MP52 at 20 nanograms/milliliter, SHH at 200 nanograms/milliliter, and FGF8 at 100 nanograms/milliliter).
At the end of the 17-day experimental period, all cultures were fixed with 4 percent paraformaldehyde (Sigma, St. Louis, Mo.) and immunocytochemical staining was performed to evaluate expression of Beta Tubulin III (TuJ1), glial fibrilary acidic protein (GFAP), and tyrosine hydroxylase (TH). […]
Following immunocytochemical staining, fluorescence was visualized using an Olympus inverted epifluorescent microscope and images were taken with a digital camera and ImagePro software (Media Cybernetics, Silver Spring, Md.). To further quantify the response, fields of cells were counted at a magnification power of 200× to examine the percentage of positive cells for each marker and compared to control samples grown in NBM alone. A minimum of 1,000 cells were counted per condition or, if less, the total number of cells observed in that condition.
The percentage of cells positive for a given marker was determined by dividing the number of positive cells for a particular marker by the total number of nucleated cells determined by DAPI staining.

The test system of test [4] is adult rat nigrostriatal dopaminergic system. Conditions: intraparenchymal injection; cited from earlier work.
Setting [5] is: immunostain, end of 17-day culture, positive cells / DAPI nucleated cells.

B1: MP52: human recombinant GDF5 protein, 120 amino acid residues with alanine at the N-terminus, from Biopharm GmbH (protein, UniProt P43026 382-501, looked up)
Growth/differentiation factor …: APLATRQGKRPSKNLKARCSRKALHVNFKDMGWDDWIIAPLEYEAFHCEGLCEFPLRSHLEPTNHAVIQTLMNSMDPESTPPTCCVPTRLSPISILFIDSANNVVYKQYEDMVVESCGCR
As to B1, the “survival-promoting action on dopaminergic neurons against MPP+” value in test [1] is recorded as “survival-promoting actions”. Also, the “Nurr1 expression, in words” value in test [2] (postpartum cell cultures (umbilicus and placenta), compared to control (NBM plus EGF plus FGF8)) is given as “induced”. The “Tyrosine hydroxylase (TH) expression, in words” value in test [2] (umbilical cell cultures, compared to control) was “induced”. In addition, in test [3] (immunocytochemistry), the “differentiation towards an astrocytic phenotype (GFAP expression), in words” value is given as “increased expression”.

B2: NBM + MP52: neurobasal medium containing MP52 at 20 nanograms/milliliter (protein, UniProt P43026 382-501, looked up)
Growth/differentiation factor …: B1 Growth/differentiation factor …
modifications: in neurobasal medium, 20 ng/mL
notes: neurobasal medium containing MP52 at 20 nanograms/milliliter
As for B2, in test [3] (setting [5]), the “Percentage of cells staining positive for GFAP” value is “≧80%”, the “Percentage of cells staining positive for TH” value was 6.1% and the “Percentage of cells staining positive for TuJ1” value was 12.5%.

B3: GDF5: growth and differentiation factor protein of the TGF-beta superfamily (literature studies) (protein, UniProt P43026 382-501, looked up)
Growth/differentiation factor …: B1 Growth/differentiation factor …
Regarding B3, the “protection of nigrostriatal dopaminergic system from death induced by 6OHDA lesion” value in test [4] was “protects”.
